Target: Neuregulin-1 receptors (ErbB3 or ErbB4) on MCF-7 human breast cancer cells
Assay: cell-based or functional assay

- Biological activity; ErbB2 phosphorylation ELISA on MCF-7 cell lysates; Reference Sample (0 g/L HSA): 1500 U
- Biological activity; ErbB2 phosphorylation ELISA on MCF-7 cell lysates; Sample A (0.5 g/L HSA): 1730 U
- Biological activity; ErbB2 phosphorylation ELISA on MCF-7 cell lysates; Sample B (2 g/L HSA): 3500 U
- Biological activity; ErbB2 phosphorylation ELISA on MCF-7 cell lysates; Sample C (8 g/L HSA): 4000 U
- EC50 value; ErbB2 phosphorylation ELISA on MCF-7 cell lysates; Reference Sample (0 g/L HSA): 0.0505
- EC50 value; ErbB2 phosphorylation ELISA on MCF-7 cell lysates; Sample A (0.5 g/L HSA): 0.0439
- EC50 value; ErbB2 phosphorylation ELISA on MCF-7 cell lysates; Sample B (2 g/L HSA): 0.0217
- EC50 value; ErbB2 phosphorylation ELISA on MCF-7 cell lysates; Sample C (8 g/L HSA): 0.0189
- OD50 value; ErbB2 phosphorylation ELISA on MCF-7 cell lysates; Reference Sample (0 g/L HSA): 0.391 OD
- OD50 value; ErbB2 phosphorylation ELISA on MCF-7 cell lysates; Sample A (0.5 g/L HSA): 0.393 OD
- OD50 value; ErbB2 phosphorylation ELISA on MCF-7 cell lysates; Sample B (2 g/L HSA): 0.406 OD
- OD50 value; ErbB2 phosphorylation ELISA on MCF-7 cell lysates; Sample C (8 g/L HSA): 0.424 OD
- Standard sample EC50/sample EC50; ErbB2 phosphorylation ELISA on MCF-7 cell lysates; Sample A (0.5 g/L HSA) against Reference Sample: 1.15
- Standard sample EC50/sample EC50; ErbB2 phosphorylation ELISA on MCF-7 cell lysates; Sample B (2 g/L HSA) against Reference Sample: 2.33
- Standard sample EC50/sample EC50; ErbB2 phosphorylation ELISA on MCF-7 cell lysates; Sample C (8 g/L HSA) against Reference Sample: 2.67
- specific activity; ErbB2 phosphorylation ELISA on MCF-7 cell lysates; Reference Sample (0 g/L HSA): 6000 U/mg
- specific activity; ErbB2 phosphorylation ELISA on MCF-7 cell lysates; Sample A (0.5 g/L HSA): 6900 U/mg
- specific activity; ErbB2 phosphorylation ELISA on MCF-7 cell lysates; Sample B (2 g/L HSA): 14000 U/mg
- specific activity; ErbB2 phosphorylation ELISA on MCF-7 cell lysates; Sample C (8 g/L HSA): 16000 U/mg
B1: recombinant human Neuregulin-1 (rhNRG-1) (ligand)
chain: SHLVKCAEKEKTFCVNGGECFMVKDLSNPSRYLCKCPNEFTGDRCQNYVMASFYKAEELYQ
